Tests used:
[1] = target: HCMV gB ectodomain base construct (gB Base) (human cytomegalovirus, Towne strain) (UniProt P13201); assay: cryo-EM structure
[2] = target: HCMV gB ectodomain base construct (gB Base) (human cytomegalovirus, Towne strain) (UniProt P13201); assay: SEC; Superose 6 Increase 10/300 GL; 2 mM Tris pH 8.0, 200 mM NaCl, 0.02% sodium azide; LMW peak ~14 mL (trimers), HMW peak ~12 mL (oligomers of trimers)

“HCMV gB ectodomain base construct (gB Base) (from UniProt P13201 23-704) (domain or fragment)” showed a stoichiometry N [1] of 3 and a stoichiometry N [2] of 3.

Source: PMC11406251
